One series has as its target PTBP1 RRM1 (UniProt P26599-1 41-163). In words: NMR (intermolecular NOEs); binding register confirmed; NMR/SANS: 10 mM NaPO4 pH 6.5, 20 mM NaCl, 1-2 mM DTT; protein NMR at 313/323 K, imino spectra 278-293 K; DEER 1:1 d8-glycerol at 50 K; SAS 23 C. As to conditions: protein: recombinant; hairpin.
The target in a further series is PTBP1 (hnRNP I) (UniProt P26599-1 1-531, C250S;C251S). Description: NMR; SAXS/SANS; CLIR-MS/MS; integrative structure; ensemble in Zenodo 10.5281/zenodo.7798970; NMR/SANS: 10 mM NaPO4 pH 6.5, 20 mM NaCl, 1-2 mM DTT; protein NMR at 313/323 K, imino spectra 278-293 K; DEER 1:1 d8-glycerol at 50 K; SAS 23 C. As to conditions: protein: recombinant; stem-loops D, E and F with single-stranded linkers.
Chain of PTBP1 (hnRNP I) (P26599 other isoform, or with tags, fused parts or gaps C250S;C251S): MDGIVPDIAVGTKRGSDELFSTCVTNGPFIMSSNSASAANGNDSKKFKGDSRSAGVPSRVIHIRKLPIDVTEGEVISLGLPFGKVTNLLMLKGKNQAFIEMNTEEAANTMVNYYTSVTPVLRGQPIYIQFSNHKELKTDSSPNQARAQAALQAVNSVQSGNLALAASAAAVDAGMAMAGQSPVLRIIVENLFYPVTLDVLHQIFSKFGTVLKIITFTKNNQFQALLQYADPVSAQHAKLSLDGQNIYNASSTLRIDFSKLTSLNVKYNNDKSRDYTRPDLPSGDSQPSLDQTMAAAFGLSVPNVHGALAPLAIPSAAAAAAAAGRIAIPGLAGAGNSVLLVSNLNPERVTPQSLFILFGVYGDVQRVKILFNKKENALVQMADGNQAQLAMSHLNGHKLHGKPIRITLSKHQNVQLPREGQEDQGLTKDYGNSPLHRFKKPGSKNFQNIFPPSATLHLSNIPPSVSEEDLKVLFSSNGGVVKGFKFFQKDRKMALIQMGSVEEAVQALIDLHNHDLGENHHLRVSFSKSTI

Chain of PTBP1 RRM1 (P26599 41-163): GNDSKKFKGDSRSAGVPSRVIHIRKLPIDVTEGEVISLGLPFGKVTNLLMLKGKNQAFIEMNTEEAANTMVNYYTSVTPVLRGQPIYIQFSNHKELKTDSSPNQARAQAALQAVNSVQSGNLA

Consider GGAGCGUUUGUCUAUAUGUUCC (structured_RNA) [SLE], for which the binding result with PTBP1 RRM1 is recorded as “binds”.

B1: EMCV-IRES-DtoF (structured_RNA)
RNA: UACUGGCCGAAGCCGCUUGGAAUAAGGCCGGUGUGCGUUUGUCUAUAUGUUAUUUUCCACCAUAUUGCCGUCUUUUGGCAAUGUG
As to B1, in the series with PTBP1 (hnRNP I), the binding result was “binds”.

Source of the values: publication PMC10576089, “Integrative solution structure of PTBP1-IRES complex reveals strong compaction and ordering with residual conformational flexibility”.
